Test results as given in patent US20180221438A1, “MODULATING URACIL-DNA GLYCOSYLASE AND USES THEREOF” (Adaerata Limited Partnership, priority 2015, published 2018).

Legend:
CH12F3 cells [1] = assay: ChIP for DNA damage marker at the telomeres; type: cell-based, mouse; conditions: CH12F3 Ugi vs CH12F3 GFP
Method: ChIPs to evaluate interaction with the telomeric chromatin or the Ig locus were performed as described previously ^39,61. Briefly, cells were cross-linked with 1% formaldehyde for 20 min at room temperature and reaction was stopped by addition of glycine to 125 mM final concentration. Cells were washed twice with cold PBS, harvested and kept at −80° C. O.N. Samples were resuspended in RIPA buffer (150 mM NaCl, 1% [v/v] Igepal CA-630, 0.5% [w/v] Sodium Deoxycholate, 0.1% [w/v] SDS, 50 mM Tris-HCl at pH 8, 5 mM EDTA, protease and phosphatase inhibitors) and sonicated to generate DNA fragments <500 bp using a Bioruptor™ Next Gen (Diagenode).
In order to increase the sensitivity of the ChIP assays and evaluate the presence of AID at the telomeres we performed the immunoprecipitations with fractions enriched in crosslinked chromatin. For this goal B cells fixed with 1% formaldehyde as described above were resuspended in RIPA buffer, sonicated during 90 seconds using a Bioruptor™ Next Gen (Diagenode), and the lysates were then spun down briefly (2000g, for 5 min at 4 C) to remove debris. […] Samples were then clarified by centrifugation at 20,000 RPM (4° C.) and their protein content was measured using the BCA method (Biorad). […]

CH12F3 cells [2] = assay: Anaphase bridges by DAPI staining in CH12F3 cells expressing E6 and E7; type: cell-based, mouse; conditions: CH12F3 Ugi with E6 and E7, vs CH12F3 Ugi shAID and control GFP cells
Excerpt: Anaphase cells were visualized by DAPI staining of cells fixed with 2% paraformaldehyde in 1X PBS and attached to slides pre-treated with poly-lysine and analyzed as described previously ^33.

human DLBCL cell lines = assay: Growth curves of human DLBCL cell lines; type: cell-based; conditions: DLBCL AID+ (Ocy-Ly3, Ocy-Ly10) and AID− (Ocy-Ly7, Ocy-Ly8) lines expressing Ugi
Method: Stable shRNA-mediated knockdowns were generated in CH12F3-2 cells following protocols from the RNAi Consortium (TRC). Transfected cells were selected with puromycin at 1 μg/ml final concentration. For double knockdowns, CH12F3-2 cells were first transfected with a pLKO.1 neomycin version of the shRNA (shAID or shGFP) and selected, then transduced with the second shRNA and selected again with puromycin before analysis. CH12F3 Ugi cells transduced with pMIG-Ugi-IRES-GFP were generated as described ^39, and human lymphoma Ugi cells were generated by retroviral delivery using a pLPC-PURO system (pLPC-Ugi-PURO) and transduced cells were selected with 1 ug/m1 of puromycin. The Ugi protein from bacteriophage PBS2 and its ability to inhibit eukaryotic UNG have been described ^69,31.
The inventors therefore stratified human DLBCL cell lines on the basis of their AID protein levels into high (DLBCL AID^+) (Ocy-Ly3 and Ocy-Ly10 in FIG. 13A) or low expressing (DLBCL AID^−) lines (Ocy-Ly7 and Ocy-Ly8 in FIG. 13A) and established derivatives expressing Ugi for each one.

DLBCL cells = assay: Metaphases with STL in DLBCL lines; type: cell-based, human; conditions: DLBCL lines expressing GFP or Ugi, and AID or shAID
Method: For metaphase analysis cells were incubated with 50 ng/ml colcemide in cell culture media for 3 hours, harvested by trypsinization, incubated for 10 min at RT in 75 mM KCl, and fixed in freshly prepared methanol:glacial acetic acid (3:1 v/v). Cells were stored at 4° C. and when needed dropped onto wet slides and air-dried. For FISH analysis of the metaphases the cells were pre-treated with 0.05% w/v pepsin in 10 mM HCl during 10 minutes at 37° C. After washes with 1X PBS, cells were fixed with 1% formaldehyde in 1X PBS during 10 minutes at RT, washed again with 1X PBS and dehydrated with ethanol series (70-90-100%, 2 min each at RT) and air-dried ON. Then, cells were denatured with hybridization solution (70% deionized formamide; 2.5% 50× Denhardt solution; 10 mM Tris pH 7.5; 1.5 mM MgCl2) containing Alexa488-conjugated PNA probe (Alexa488-OO-(CCCTAA)3) 2 min at 80° C. on a heat block. After 4 hours incubation at RT in the dark, the samples were washed twice with wash solution (70% deionized formamide and 10 mM Tris-HCl [pH 7.2]) at RT and then twice with PBS. For DAPI staining of DNA, slides with metaphase spreads were incubated 10 min in 0.5 ? g/ml 4′, 6-diamino-2-phenylindole (DAPI) (Sigma) in PBS, washed with PBS for 2 min, and mounted in SlowFade™ Gold antifade mounting reagent (Life Technologies). Finally, the samples were analyzed as described above. […]

B1: Ugi: Uracil Glycosylase Inhibitor of Bacillus subtilis bacteriophage PBS1/PBS2, small protein (9.5 kDa), SEQ ID NO: 29; expressed in cells by retroviral delivery (protein)
chain: MTNLSDIIEKETGKQLVIQESILMLPEEVEEVIGNKPESDILVHTAYDESTDENVMLLTSDAPEYKPWALVIQDSNGENKIKML
modifications: bacillus subtilis
notes: expressed in cells by retroviral delivery
phospho-ser129-H2AX at the telomeres (CH12F3 cells [1]): AID-dependent accumulation of phospho-ser129-H2AX | anaphase bridges (CH12F3 cells [2]): significantly accumulated anaphase bridges | growth of DLBCL cells (human DLBCL cell lines): only impaired the growth of DLBCL AID+ cells | number of metaphases with STL (DLBCL cells): significant increase in the number of metaphases with STL only when DLBCL cells expressed AID and Ugi but not with Ugi alone
